Assay results reported in patent US20200347146A1 (I MAB BIOPHARMA US, published 2020).

T1: CD73 on the surface of A375 cells (UniProt P21589 27-549, limits assumed)
T1 construct: whole, on cells; also called cell surface CD73
T1 sequence (looked up): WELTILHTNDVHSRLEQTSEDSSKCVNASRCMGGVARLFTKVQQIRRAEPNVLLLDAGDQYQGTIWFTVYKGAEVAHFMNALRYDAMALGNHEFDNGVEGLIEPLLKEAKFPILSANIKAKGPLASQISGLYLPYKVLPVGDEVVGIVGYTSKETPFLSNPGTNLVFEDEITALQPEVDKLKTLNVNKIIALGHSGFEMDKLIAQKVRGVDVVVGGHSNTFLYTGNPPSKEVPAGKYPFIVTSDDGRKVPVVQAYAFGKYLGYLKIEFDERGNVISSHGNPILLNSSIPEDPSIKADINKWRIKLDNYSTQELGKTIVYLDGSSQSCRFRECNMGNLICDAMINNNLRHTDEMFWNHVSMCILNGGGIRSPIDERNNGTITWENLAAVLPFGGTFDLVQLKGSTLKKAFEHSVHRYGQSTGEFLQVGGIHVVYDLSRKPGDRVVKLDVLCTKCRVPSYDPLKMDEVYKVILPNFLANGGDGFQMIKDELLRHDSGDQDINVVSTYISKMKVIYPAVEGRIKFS

T2: human CD73 protein (soluble) (human, UniProt P21589 27-549, limits assumed)
T2 construct: its species is not restated there; also called soluble CD73; 5'-nucleotidase
T2 sequence (looked up): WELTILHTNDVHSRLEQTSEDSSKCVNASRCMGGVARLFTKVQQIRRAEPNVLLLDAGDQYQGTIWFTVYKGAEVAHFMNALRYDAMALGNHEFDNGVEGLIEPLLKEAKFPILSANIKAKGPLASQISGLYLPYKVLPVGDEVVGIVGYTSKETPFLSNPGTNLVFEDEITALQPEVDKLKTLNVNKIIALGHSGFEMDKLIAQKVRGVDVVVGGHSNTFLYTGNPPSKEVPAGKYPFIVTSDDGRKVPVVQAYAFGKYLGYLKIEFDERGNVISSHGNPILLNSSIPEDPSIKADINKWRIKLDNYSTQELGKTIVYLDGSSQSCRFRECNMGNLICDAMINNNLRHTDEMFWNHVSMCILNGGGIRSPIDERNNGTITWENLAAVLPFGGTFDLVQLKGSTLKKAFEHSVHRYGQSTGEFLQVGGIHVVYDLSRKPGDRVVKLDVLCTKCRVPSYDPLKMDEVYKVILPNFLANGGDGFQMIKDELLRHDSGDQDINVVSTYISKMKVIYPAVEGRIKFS


What was measured:
[1] = target: T1, CD73 on the surface of A375 cells; assay: flow cytometry on A375 cells, AF633 anti-human Fc detection
Procedure: A375 cells that constitutively expressed CD73 on the surface were used in this example. 1×10⁵ A375 cells/well were suspended in FACS buffer. Antibodies diluted from 10 nM by 2-fold, 100 μl into each well, 4° C. for 30 min. The samples were washed with FACS buffer for 1×. AF633-anti hu Fc was added for binding for 30 min at 4° C., and washed with FACS buffer for 1×.

[2] = target: T2, human CD73 protein (soluble); assay: ELISA, human CD73 coated on the plate, anti-human Fc HRP detection
Procedure: Plated were coated with 100 μl of 1 μg/ml human CD73 protein overnight. The samples were blocked with 1% BSA in PBST for 1 hr, washed with PBST 3×. […] Binding with anti-hu Fc HRP was at 1:10000 in PBST, RT for 30 min, wash with PBST 3×. 100 μl of TMB and 100 μl of HCl were then added.

[3] = target: T3, human PD-L1 protein (soluble) (human, UniProt Q9NZQ7 19-238, limits assumed); assay: ELISA, human PD-L1 coated on the plate, anti-human Fc HRP detection
T3 construct: also called soluble PD-L1

[4] = target: T4, human PD-L1 on PD-L1 positive Raji cells (human, UniProt Q9NZQ7 19-290); assay: flow cytometry on PD-L1 positive Raji cells, AF633 anti-human Fc detection
T4 construct: whole, on cells; also called cell surface PD-L1; PD-L1+ cells
T4 sequence (Q9NZQ7 19-290): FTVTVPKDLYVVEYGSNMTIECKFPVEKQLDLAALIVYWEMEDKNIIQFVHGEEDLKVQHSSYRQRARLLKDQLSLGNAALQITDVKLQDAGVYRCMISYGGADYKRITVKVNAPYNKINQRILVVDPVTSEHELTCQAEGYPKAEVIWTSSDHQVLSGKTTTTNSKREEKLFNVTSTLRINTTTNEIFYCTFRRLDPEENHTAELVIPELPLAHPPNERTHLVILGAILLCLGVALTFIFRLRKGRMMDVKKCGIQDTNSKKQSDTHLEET

T3 sequence (Q9NZQ7 19-238 limits assumed): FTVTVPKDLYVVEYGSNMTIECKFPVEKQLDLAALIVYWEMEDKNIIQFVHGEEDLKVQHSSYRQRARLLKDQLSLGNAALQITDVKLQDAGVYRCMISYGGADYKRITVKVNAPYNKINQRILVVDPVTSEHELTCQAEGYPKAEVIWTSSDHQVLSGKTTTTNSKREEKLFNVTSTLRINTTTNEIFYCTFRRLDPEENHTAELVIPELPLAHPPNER

Row | binding result [1] | binding result [2] | binding result [3] | binding result [4] | Binder
1 | binds | binds |  |  | hu309 (monospecific anti-CD73 antibody with the 309 VH and 309 VL) (antibody, V domains shown, it was detected with anti-human Fc) VH: EVQLQESGPGLVKPSETLSLTCAVSGYSITSGYYWNWIRQPPGKKLEWMGYINYGGSNGYNPSLKSRITISRDTSKNQFSLKLSSVTAADTAVYYCARDYDAYYEALDDWGQGTTVTVSS VL: EIVLSQSPATLSLSPGERATLSCRASSRVNYMHWYQQKPGQSPRPWISATSNLASGVPARFSGSGSGTSYTLTISSLEPEDFAVYYCQQWSSNPPTFGGGTKVEIK
2 |  |  | binds | binds | H12(PDL1) (monospecific anti-PD-L1 antibody with the H12 VH and H12 VL) (antibody, V domains shown, it was detected with anti-human Fc; also called PD-L1 antibody H12) VH: EVQLVESGGGLVQPGGSLRLSCAASGFTFSSYDMSWVRQAPGKSLEWVATISDAGGYIYYRDSVKGRFTISRDNAKNSLYLQMNSLRDEDTAVYICARELPWRYALDYWGQGTTVTVSS VL: DIQMTQSPSSLSASVGDRVTITCKASQDVTPAVAWYQQKPGKAPKLLIYSTSSRYTGVPSRFSGSGSGTDFTFTISSLQPEDIATYYCQQHYTTPLTFGQGTKLEIK
